The assay addresses T1, GST-EBP50 (ERM-binding phosphoprotein 50 kD) (human, UniProt O14745 1-358).
T1 sequence (looked up): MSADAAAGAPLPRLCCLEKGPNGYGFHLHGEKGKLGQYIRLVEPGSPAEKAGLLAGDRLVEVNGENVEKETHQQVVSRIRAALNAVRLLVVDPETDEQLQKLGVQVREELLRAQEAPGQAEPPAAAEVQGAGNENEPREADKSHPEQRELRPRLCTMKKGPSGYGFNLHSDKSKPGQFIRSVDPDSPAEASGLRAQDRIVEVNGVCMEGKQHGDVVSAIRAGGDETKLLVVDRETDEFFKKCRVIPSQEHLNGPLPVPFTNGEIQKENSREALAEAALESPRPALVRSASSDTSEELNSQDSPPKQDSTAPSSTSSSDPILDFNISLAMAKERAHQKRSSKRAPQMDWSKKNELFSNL
Briefly: pull-down.

Ends that are not written are not given here. * marks the point of attachment. Biotin = O=C1N[C@H]2[C@H](CS[C@H]2CCCCC(=O)*)N1

B1: CFTRwt peptide (COOH-terminal 10 amino acids of human CFTR) (peptide)
peptide: Biotin-SGSGTEEEVQDTRL
Turning to B1, the binding result is reported as “binds”.
